This passage reports percent of parent results from paper PMC8930771, “Structural basis of phosphatidylinositol 3-kinase C2α function” (Nature Structural & Molecular Biology, 2022).

Sequences and labels used below:
B1: PI3KC2α^ΔN+ΔPX−C2 WT (mouse PI3KC2α amino acids 377–1,400) [mouse] / GST-distal C2 (PI3KC2α amino acids 1,561–1,686) [mouse] (parent complex)
chain 1: VQNDEVAAFCQSIMKLKTKFPYTDHCTNPGYLLSPVTVQRNMCGENASVKVSIEIEGLQLPVTFTCDVSSTVEIIIMQALCWVHDDLNQVDVGSYILKVCGQEEVLQNNHCLGSHEHIQNCRKWDTEIKLQLLTLSAMCQNLARTAEDDEAPVDLNKYLYQIEKPYKEVMTRHPVEELLDSYHYQVELALQTENQHRAVDQVIKAVRKICSALDGVETPSVTEAVKKLKRAVNLPRNKSADVTSLSGSDTRKNSTKGSLNPENPVQVSMDHLTTAIYDLLRLHANSSRCSTACPRGSRNIKEAWTATEQLQFTVYAAHGISSNWVSNYEKYYLICSLSHNGKDLFKPIQSKKVGTYKNFFYLIKWDELIIFPIQISQLPLESVLHLTLFGVLNQSSGSSPDSNKQRKGPEALGKVSLTLFDFKRFLTCGTKLLYLWTSSHTNSIPGAIPKKSYVMERIVLQVDFPSPAFDIIYTSPQIDRNIIQQDKLETLESDIKGKLLDIIHRDSSFGLSKEDKVFLWENRYYCLKHPNCLPKILASAPNWKWANLAKTYSLLHQWPPLCPLAALELLDAKFADQEVRSLAVSWMEAISDDELADLLPQFVQALKYEIYLNSSLVRFLLSRALGNIQIAHSLYWLLKDALHDTHFGSRYEHVLGALLSVGGKGLREELSKQMKLVQLLGGVAEKVRQASGSTRQVVLQKSMERVQSFFLRNKCRLPLKPSLVAKELNIKSCSFFSSNAMPLKVTMVNADPLGEEINVMFKVGEDLRQDMLALQMIKIMDKIWLKEGLDLRMVIFRCLSTGRDRGMVELVPASDTLRKIQVEYGVTGSFKDKPLAEWLRKYNPSEEEYEKASENFIYSCAGCCVATYVLGICDRHNDNIMLRSTGHMFHIDFGKFLGHAQMFGSFKRDRAPFVLTSDMAYVINGGEKPTIRFQLFVDLCCQAYNLIRKQTNLFLNLLSLMIPSGLPELTSIQDLKYVRDALQPQTTDAEATIFFTRLIESSLGSIATKFNFFIHNLAQLRFSG
chain 2: GAVKLSVSYRNGTLFIMVMHIKDLVTEDGADPNPYVKTYLLPDTHKTSKRKTKISRKTRNPTFNEMLVYSGYSKETLRQRELQLSVLSAESLRENFFLGGITLPLKDFNLSKETVKWYQLTAATYL

This experiment covers variants of B1. The experiment in a line: GST pull-down, SDS-PAGE with Coomassie Blue staining, quantified with ImageJ; n = 3; binding of WT set to 100%; parent: 100; read off a plot.
For chain 1 K50A, chain 1 W82A, chain 1 D85A, chain 1 D86A, the percent of parent is roughly 42%.
